14 molecules from publication PMC314469, “Protein Interaction Networks by Proteome Peptide Scanning” (PLoS Biology, 2004) can be followed below.

Common to all, as to test: SPOT array
For test [1], the target named is T1, Boi1 SH3 (BOI1_YEAST), P38041.
T1 chain: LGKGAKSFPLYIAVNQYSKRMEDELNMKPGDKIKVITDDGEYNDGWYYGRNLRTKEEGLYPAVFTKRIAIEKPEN

In test [2] the target is T2, Boi2 SH3 (BOI2_YEAST), P39969.
T2 chain: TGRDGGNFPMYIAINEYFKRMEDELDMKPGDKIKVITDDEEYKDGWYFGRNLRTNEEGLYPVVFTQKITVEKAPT

The target in test [3] is T3, Myo5 SH3 (MYO5_YEAST), Q04439.
T3 chain: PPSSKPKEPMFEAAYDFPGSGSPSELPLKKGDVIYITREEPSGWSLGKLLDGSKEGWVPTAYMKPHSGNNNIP

The target of test [4] is T4, Rvs167 SH3 (RV167_YEAST), P39743.
T4 chain: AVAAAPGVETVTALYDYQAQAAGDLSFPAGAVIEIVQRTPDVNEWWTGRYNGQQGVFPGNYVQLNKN

In test [5] the target is Sho1 SH3 (SHO1_YEAST), P40073.
Test [6] addresses T5, Yfr024 SH3 (LSB3_YEAST), P43603.
T5 chain: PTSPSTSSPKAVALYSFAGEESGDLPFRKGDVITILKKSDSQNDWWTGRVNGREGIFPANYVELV

Test [7] concerns the target T6, Yhr016c SH3 (YSC84_YEAST), P32793.
T6 chain: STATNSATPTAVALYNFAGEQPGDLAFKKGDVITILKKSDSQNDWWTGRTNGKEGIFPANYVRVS

Chain of Sho1 SH3 (SHO1_YEAST), P40073 (P40073 295-366): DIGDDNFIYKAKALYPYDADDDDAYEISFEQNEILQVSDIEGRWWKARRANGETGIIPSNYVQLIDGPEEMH

Consider HELVKSDPHFPYGT [YDL117W 838-851], for which the normalised SPOT signal, Boehringer light units (BLU); mean over the file's lines of this peptide in test [1] was 37.2; in test [2], 32.3; in test [3], 229; in test [4] it was 29.9; in test [5], 11.7; in test [6] it was 2.5. The molecule also displayed a normalised SPOT signal, Boehringer light units (BLU); mean over the file's lines of this peptide in test [7] of 17.
As for GTGRRRSPSTPIMP [YNR047W 192-205], the normalised SPOT signal, Boehringer light units (BLU); mean over the file's lines of this peptide in test [1] was 625; in test [2], 52; in test [3], 921; in test [4] it was 92.4; in test [5], 52.3; in test [6], 802. The same molecule registered a normalised SPOT signal, Boehringer light units (BLU); mean over the file's lines of this peptide in test [7] of 24.
As for GSYIKRTPKIPEKD [YDR026C 219-232], the normalised SPOT signal, Boehringer light units (BLU); mean over the file's lines of this peptide in test [1] stood at 129; in test [2] it was 32.5; in test [3] it was 206; in test [4], 153; in test [5], 554; in test [6], 436. Also, the normalised SPOT signal, Boehringer light units (BLU); mean over the file's lines of this peptide in test [7] came out at 52.
With HEASKSFPKAPQAS [YKL105C 877-890], the normalised SPOT signal, Boehringer light units (BLU); mean over the file's lines of this peptide in test [1] worked out at 0; in test [2], 7.4; in test [3] it was 289; in test [4] it was 13.4; in test [5] it was 70.5; in test [6], 27.3. The molecule also showed a normalised SPOT signal, Boehringer light units (BLU); mean over the file's lines of this peptide in test [7] of 26.5.
HEVPKRSPEKPSNP [YNL278W 806-819]: the normalised SPOT signal, Boehringer light units (BLU); mean over the file's lines of this peptide in test [1] was determined as 91.8; in test [2] it was 2.4; in test [3] it was 172; in test [4] it was 46.4; in test [5], 64.4; in test [6], 148. The normalised SPOT signal, Boehringer light units (BLU); mean over the file's lines of this peptide in test [7] is 61.8.
In the case of HFNTKKIPELPSQF [YML051W 376-389], the normalised SPOT signal, Boehringer light units (BLU); mean over the file's lines of this peptide is 118 in test [1]; 35.7 in test [2]; 467 in test [3]; 235 in test [4]; 1960 in test [5]; 204 in test [6]. Also, the normalised SPOT signal, Boehringer light units (BLU); mean over the file's lines of this peptide in test [7] was 4.9.
On to GTRPKILPKIPTGA [YOR227W 1148-1161], for which the normalised SPOT signal, Boehringer light units (BLU); mean over the file's lines of this peptide in test [1] amounted to 148; in test [2] it was 27.1; in test [3] it was 773; in test [4], 22.1; in test [5] it was 11800; in test [6] it was 432. The molecule further returned a normalised SPOT signal, Boehringer light units (BLU); mean over the file's lines of this peptide in test [7] of 31.6.
Regarding GYDEKGNPIPPNNW [YJL216C 137-150], the normalised SPOT signal, Boehringer light units (BLU); mean over the file's lines of this peptide in test [1] amounted to 70; in test [2], 33.1; in test [3] it was 96; in test [4] it was 46.1; in test [5], 66.3; in test [6] it was 0. Also, the normalised SPOT signal, Boehringer light units (BLU); mean over the file's lines of this peptide in test [7] was found to be 9.3.
Turning to HEREKALPPIPFTT [YLR425W 196-209], the normalised SPOT signal, Boehringer light units (BLU); mean over the file's lines of this peptide stood at 54.9 in test [1]; 1.7 in test [2]; 215 in test [3]; 42.8 in test [4]; 57900 in test [5]; 158 in test [6]. In test [7], this molecule had a normalised SPOT signal, Boehringer light units (BLU); mean over the file's lines of this peptide of 15.2.
For GSLVKTKPTLPLTK [YLR339C 59-72], the normalised SPOT signal, Boehringer light units (BLU); mean over the file's lines of this peptide in test [1] is 907; in test [2], 25.5; in test [3], 422; in test [4], 21.1; in test [5], 22.8; in test [6] it was 509. Also, the normalised SPOT signal, Boehringer light units (BLU); mean over the file's lines of this peptide in test [7] came out at 82.1.
For the molecule GTTNRGPPPLPPRA [YLR144C 18-31], the normalised SPOT signal, Boehringer light units (BLU); mean over the file's lines of this peptide in test [1] came out at 49900; in test [2], 30.6; in test [3], 39900; in test [4], 88000; in test [5], 626; in test [6] it was 43600. The molecule further showed a normalised SPOT signal, Boehringer light units (BLU); mean over the file's lines of this peptide in test [7] of 69100.
Regarding GSQWKNHPDWPFWV [YLR057W 726-739], the normalised SPOT signal, Boehringer light units (BLU); mean over the file's lines of this peptide turned out to be 133 in test [1]; 9.6 in test [2]; 108 in test [3]; 46.8 in test [4]; 14.5 in test [5]; 69.9 in test [6]. The normalised SPOT signal, Boehringer light units (BLU); mean over the file's lines of this peptide in test [7] came to 18.7.
GTVTKTAPSFPQSS [YPL075W 604-617]: the normalised SPOT signal, Boehringer light units (BLU); mean over the file's lines of this peptide in test [1] came out at 144; in test [2] it was 135; in test [3], 261; in test [4], 63.6; in test [5] it was 25.5; in test [6] it was 20. This molecule showed a normalised SPOT signal, Boehringer light units (BLU); mean over the file's lines of this peptide in test [7] of 45.4.
In the case of GYNPKTVPFVPISG [YBR118W 180-193], the normalised SPOT signal, Boehringer light units (BLU); mean over the file's lines of this peptide in test [1] is 39.8; in test [2], 5.8; in test [3] it was 108; in test [4] it was 25; in test [5] it was 25; in test [6], 13.3. This molecule displayed a normalised SPOT signal, Boehringer light units (BLU); mean over the file's lines of this peptide in test [7] of 37.2.
